Experiment [1] concerns the target murine monoclonal antibody LA-2, wild type (mouse). Nature of the experiment: SPR. On the technique in general: SPR reads the build-up and loss of mass on a sensor chip optically.
Experiment [2] concerns the target Outer surface protein A (OspA) from Borrelia burgdorferi B31, wild type (Borrelia burgdorferi B31, UniProt P0CL66). Put plainly: SPR.

Residue numbers refer to the chain shown, from its start. In names and notes the source's numbering stands.

In turn, “OspA (B. burgdorferi B31) A215K (from UniProt P0CL66 17-273) (natural protein)” showed a fold increase of affinity against wild type OspA in experiment [1] of 7.5 fold.

B1: murine monoclonal antibody LA-2, wild type (antibody, V domains shown)
VH: QIQLVQSGPELKKPGETVKISCKASGYTFTDYSMYWVKQAPGKGLKRMGWINTETGEPTYADDFKGRFALSLDTSASTAYLHISNLKNEDTATYFCARGLDSWGQGTSVTVSS
VL: DIQMTQSPSSLSATLGGKVTITCKASQDINKYIAWYQHKPGKGPRLLIHYTSTLQPGNPSRFSGSGSGRDYSFSISNLEAEDIAIYYCLQYDNLQRTFGGGTKVEIK
Regarding B1, the binding result in experiment [2] is “binds”.

B2: LA-2 H49A-Light (antibody, V domains shown)
VH: B1 VH
VL: B1 VL with H49A
Consider B2, for which the binding result in experiment [2] is listed as “no binding”.

The values are drawn from paper PMC5383521 (Journal of molecular recognition : JMR, 2016).
